Measured values from doi:10.1101/795211 (bioRxiv, 2019).

T1: His-tagged AtYefM co-expressed with AtYoeB from the pET-Duet vector (Agrobacterium tumefaciens strC58, UniProt Q7CY23 1-84)
T1 sequence (looked up): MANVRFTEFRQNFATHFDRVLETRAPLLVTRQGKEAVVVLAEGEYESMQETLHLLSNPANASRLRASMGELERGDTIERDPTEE

B1: YoeB toxin from Agrobacterium tumefaciens (AtYoeB), expressed alone, after removal of the GST-His affinity tag (natural protein)
chain: MKLVWTLSSWDDYEFWQRTDARMVEKINDLIRNAKRTPFAGLGKPEPLKGDMAGYWSRRITAEHRFVYRVSGSGSEQRLEVIQCRFHYQ
B2: AtYoeB co-expressed with His-AtYefM from the pET-Duet vector (natural protein)
chain: B1 chain
B3: His-AtYefM, YefM antitoxin from Agrobacterium tumefaciens expressed alone (pET15b), His affinity tag kept (natural protein, Agrobacterium tumefaciens strC58, UniProt Q7CY23 1-84, looked up)
chain: T1 sequence (looked up)

Assays:
SEC-MALS = molecular target: the molecule itself; test: SEC-MALS
[1] = molecular target: T1, His-tagged AtYefM co-expressed with …; test: SEC-MALS

Row | Binder | stoichiometry N (SEC-MALS) | stoichiometry N [1]
1 | B1 | 2 | 
2 | B2 |  | 1
3 | B3 | 2 | 
